Source: the supplement of paper PMC12042874
± gives the uncertainty stated by the source.

Test: amyloid nucleation score (Sup35N fusion, yeast selection) (log enrichment); library NNK2; higher = more nucleation; inactive = no reads after selection
Procedure, shortened: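 On medium lacking adenine and uracil, psi-negative yeast expressing peptides of 20 random codons fused to Sup35N were grown 7 days at 30°C after a 24-hour induction with 100 μM copper sulfate. Illumina sequencing of input and output plasmid inserts gave the reads, and sequences under 100 input reads were excluded. The nucleation score is the DiMSum log enrichment of output over input reads, centred on the mode score of non-aggregating sequences.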

GLLKTQ
amyloid nucleation score: -0.087 ± 0.31

GVIWTRAVANCIVLSGMS
amyloid nucleation score: -0.149 ± 0.55

DFILGYVDS
amyloid nucleation score: -0.65 ± 1

SVESIYLVVDVMMLGELCCA
amyloid nucleation score: 4.849 ± 0.034

MRSRNLLS
amyloid nucleation score: inactive

TFATYTISNCLYVPRPVT
amyloid nucleation score: 0.879 ± 0.19

CISSMVALMGGPWNEMLGTW
amyloid nucleation score: 0.767 ± 0.74

AYFKYCSSLRGSIRDNRADW
amyloid nucleation score: 0.113 ± 0.63

VSDACRLDYLLAHILELGSM
amyloid nucleation score: -1.08 ± 0.78

HRTLFKGPSWLPKRRERAIL
amyloid nucleation score: -0.097 ± 0.79

YTSGSTGRDLLPNMKRGSVV
amyloid nucleation score: 4.36 ± 0.12

FRSNYVKAFRYLYVGLVVNL
amyloid nucleation score: -0.505 ± 1.1

MGYRFSGDLMEGRSTEWWRA
amyloid nucleation score: 0.836 ± 0.47

SFFMEDQCTRPLVWEVRVFN
amyloid nucleation score: 0.049 ± 1.1

YTRWWLWWGFNNCWRYWSEK
amyloid nucleation score: -0.96 ± 0.55

PRGEFTWWSLGIIPNRWQCR
amyloid nucleation score: -0.771 ± 1.1

SIRQTCKFGYIMAWL
amyloid nucleation score: 7.064 ± 0.057

RYRELVGVKCMV
amyloid nucleation score: 0.978 ± 0.74

YAQQIVVLVAGPWWSWTRRG
amyloid nucleation score: 0.791 ± 0.81

RSPCIWLWFLNAACHKCVLM
amyloid nucleation score: 0.752 ± 0.43

FGIFVNRLCFSIDSYAGNGK
amyloid nucleation score: 6.605 ± 0.037

GHMQYSYFLDLYSKLFCVFN
amyloid nucleation score: 4.52 ± 0.062

VRLPLIVYLKSAYTSPPWGS
amyloid nucleation score: -0.702 ± 1.1

FVRGDSGFTLNAAR
amyloid nucleation score: -0.288 ± 0.3

PDFRSP
amyloid nucleation score: -0.451 ± 0.41

GNYISICESFF
amyloid nucleation score: -0.177 ± 1

KPFFEKFVSTLGLWFEQLKS
amyloid nucleation score: -0.574 ± 0.42

LSAKWCTECNLAASRRLNIN
amyloid nucleation score: 0.034 ± 0.32

LWLLMYGSW
amyloid nucleation score: 2.4 ± 0.1

YCALWTTTE
amyloid nucleation score: 1.62 ± 0.18

FLSYLN
amyloid nucleation score: -0.322 ± 0.5

TKLLP
amyloid nucleation score: -0.149 ± 0.55

FFGAFGPRWGNYENITLCSY
amyloid nucleation score: inactive

STYPILR
amyloid nucleation score: 2.02 ± 0.18

VYTRKCGLAFRVSSGT
amyloid nucleation score: 0.574 ± 0.5

LKEHYF
amyloid nucleation score: -1.44 ± 0.55

SFVTYSNSLFFTISSDSK
amyloid nucleation score: 6.826 ± 0.054

PTLVLKKAVEPTQENGSLTV
amyloid nucleation score: 5.767 ± 0.051

TGDSYLYRWVSARFGHRLRS
amyloid nucleation score: -0.314 ± 0.27

FNVSVGMMNFRMERLGI
amyloid nucleation score: -0.819 ± 0.42

YQSVRK
amyloid nucleation score: -0.022 ± 0.55

FDYAQRWSQP
amyloid nucleation score: 0.121 ± 0.49

VTGDMTLFAWNLMGA
amyloid nucleation score: 0.625 ± 0.43

YFVFHDQKSTNLGWIFVFCR
amyloid nucleation score: 0.108 ± 0.65

HLFVASYDKRVECFLSVKGE
amyloid nucleation score: inactive

KLGVKLASTLGISRLPHTTS
amyloid nucleation score: 0.827 ± 0.23

WVDIPFW
amyloid nucleation score: -0.83 ± 1.1

KTTHDCGSAHVGL
amyloid nucleation score: -0.504 ± 0.63

GYKDANQNM
amyloid nucleation score: inactive

WSNFVIMNVPANGAWNFRIR
amyloid nucleation score: -1.13 ± 0.76

WYYFYLFDACLSVSCWAIWY
amyloid nucleation score: -0.283 ± 1

VERLYDAYQIF
amyloid nucleation score: 0.316 ± 0.4

GLLVSGMINWYRVFIRNILL
amyloid nucleation score: -0.606 ± 0.38

TRETHLGNAFA
amyloid nucleation score: 0.674 ± 0.53

TWCMRMNCSAFRKGVVNYSR
amyloid nucleation score: 2.91 ± 0.078

FGLLLWYLCFSHIG
amyloid nucleation score: inactive

RAMVPHHNADGCGLLQDTQ
amyloid nucleation score: 1.14 ± 0.38

DTRLIGECQLGSGVTVLSLG
amyloid nucleation score: 0.252 ± 0.27

TCSFMMCLPTRLARIIDPWM
amyloid nucleation score: -0.322 ± 0.49

SISTSTGLRRHPYNGPKIGM
amyloid nucleation score: -0.221 ± 0.32

ISNGYPVDRHSWVNILSLT
amyloid nucleation score: 1.23 ± 0.47

ILAVRQV
amyloid nucleation score: 0.054 ± 0.79

ATVSDYKVHGSDLFSFTVND
amyloid nucleation score: 8.299 ± 0.058

YDGFDITYSYDLSVVFCVDR
amyloid nucleation score: 0.046 ± 0.44

MSVLSMVFSGFDPMERFGEL
amyloid nucleation score: 0.294 ± 0.8

FRLAVFSEFQCFR
amyloid nucleation score: 1.9 ± 0.12

VVAFRMSSDNAHSHDLPVPW
amyloid nucleation score: 5.59 ± 0.073

LSESRRQVASASDLMKRRIP
amyloid nucleation score: 1.24 ± 0.66

FVRSWSTCCDA
amyloid nucleation score: -0.176 ± 0.31

SWFWVPGNQLLMTIEGFQWS
amyloid nucleation score: -0.281 ± 0.35

YNSNFPTLYWG
amyloid nucleation score: inactive

EFRNLT
amyloid nucleation score: -0.213 ± 0.18

CIINNKIQVAVKNDYLDHRE
amyloid nucleation score: 4.69 ± 0.1

LMPDSCSNPRWKTEVLTIRG
amyloid nucleation score: -0.199 ± 1.1

TMYFILLCMLLRGFSSGPPP
amyloid nucleation score: -1.04 ± 0.78

SCRNCSQSVSLGGSSKPRQV
amyloid nucleation score: 0.455 ± 0.4

YMIFCLSIYEDDEALGPTER
amyloid nucleation score: -0.287 ± 0.21

NPEDPQSMLLVVGCVEKN
amyloid nucleation score: 0.214 ± 0.54

WGRLGARCYRRILVPGRCLE
amyloid nucleation score: -0.756 ± 0.48

RGANNGMCYFMTRRKWLLMV
amyloid nucleation score: 0.813 ± 0.56

ITYGKVLR
amyloid nucleation score: 0.379 ± 0.44

ISIVYNSAMSIHHDFLILLC
amyloid nucleation score: 5.32 ± 0.094

HVTWKNMIIDYLVP
amyloid nucleation score: 0.615 ± 0.6

FPQFNRIWSSNFFAHIEGLN
amyloid nucleation score: -1.85 ± 0.44

LFSLPPCFN
amyloid nucleation score: 1.5 ± 0.11

GLVRPLSLMVETANAVHG
amyloid nucleation score: 1.39 ± 0.35

MIFCCTRK
amyloid nucleation score: 8.708 ± 0.078

FLMISWSLWGFFLY
amyloid nucleation score: inactive

ILKGNNSS
amyloid nucleation score: -1.2 ± 0.62

SFSNTAAYAKEYCRSYWVLV
amyloid nucleation score: inactive

LNALIHYVER
amyloid nucleation score: 0.842 ± 0.42

WIITNCSLFFSVALS
amyloid nucleation score: 6.79 ± 0.085

LVVWPMNQPLPLSNRPTPKR
amyloid nucleation score: 1.83 ± 0.3

YFRAYWTCSEC
amyloid nucleation score: inactive

SWNTVVFSGKDNSILGVLAQ
amyloid nucleation score: -0.176 ± 0.45

RDAGSGREL
amyloid nucleation score: inactive

YICSFYEADRSTRCFLIFFF
amyloid nucleation score: -1.23 ± 0.44

VWVPQSVIRSLHLPSN
amyloid nucleation score: -1.01 ± 1.1

ALYMDVRL
amyloid nucleation score: 1.53 ± 0.19

CPSYSTMSTGFVERVLPTGR
amyloid nucleation score: 1.53 ± 0.39

PDYYYMTTLLYCRSSKSLKR
amyloid nucleation score: -1.46 ± 1.1

DYSSVVYNDGIWKGAPNFK
amyloid nucleation score: -2.05 ± 0.78

LLVAKYNLEYRMLSCSDNRQ
amyloid nucleation score: 3.1 ± 0.17

RINVPDVRMDPNYQIHF
amyloid nucleation score: -1.02 ± 0.36

SLCPRYYGF
amyloid nucleation score: inactive

VYLVRKWRSGWRYLTRVI
amyloid nucleation score: 1.24 ± 0.41

AFTSLPLCYSVYGKIKFCPC
amyloid nucleation score: 0.433 ± 0.62

EFMNDVIILIYLSFKRTILN
amyloid nucleation score: -0.541 ± 1.1

VWLCHSVNHIAISNE
amyloid nucleation score: 1.12 ± 0.45

KFWLCDEGYWWNVASGLSSV
amyloid nucleation score: 0.845 ± 0.32

FFWNM
amyloid nucleation score: -0.274 ± 0.34

PIFNMSTPNFLSSPESRLLV
amyloid nucleation score: inactive

VNECSFYIIPQTAQWCLVV
amyloid nucleation score: 0.086 ± 0.5

AAMPLPF
amyloid nucleation score: inactive

ISGTHLCSRFYIRYALCGLK
amyloid nucleation score: 4.66 ± 0.079

IPGVLLTYVIISRAPGGIPD
amyloid nucleation score: -0.545 ± 0.64

GSLGASVSNFGVAYSLCATR
amyloid nucleation score: -0.359 ± 0.65

QSFFLN
amyloid nucleation score: inactive

FYGVNVRIRCKH
amyloid nucleation score: 0.486 ± 0.66

TGQKFT
amyloid nucleation score: -0.615 ± 0.41

VCWYG
amyloid nucleation score: 0.034 ± 0.3

FMLRTAQSHISSTVTSVKQA
amyloid nucleation score: 0.064 ± 0.4

SYGWFCSRVIFWRSGNFYWK
amyloid nucleation score: inactive

ESYIWMLRGHMLCKDEVMNV
amyloid nucleation score: -0.611 ± 0.74

GGTSLRNTLGICLNYLQS
amyloid nucleation score: inactive

TVFFIFHLLVYLPMFTRALD
amyloid nucleation score: 8.55 ± 0.043

HVEHGNCFQ
amyloid nucleation score: inactive

DISELDVCFL
amyloid nucleation score: -0.287 ± 0.33

KRRSQIRMTNDNLASVNMKN
amyloid nucleation score: 1.43 ± 0.096
